This note sets out measurements from article PMC7969015 (Nucleic Acids Research, 2021).

Common to all, as to assay: SEC
In data set [1] the target is hGTPBP3 G domain (G249-P426) (human).
In data set [2] the target is hGTPBP3 G domain A322P (human).
The target in data set [3] is hGTPBP3 G domain P257H (human).
The target of data set [4] is hGTPBP3 G domain ΔG312-V319 (human).
Data set [5] has as its target mature hGTPBP3 (hGTPBP3-ΔN20, T21-K492) (human).
In data set [6] the target is ΔN-hGTPBP3 (N154-K492) (human).
Data set [7] concerns the molecule itself.

For orientation: stoichiometry N means the number of molecules, sites or subunits per partner or assembly. In data set [1], “hGTPBP3 G domain (G249-P426) (domain or fragment)” gave a stoichiometry N of 2.

As to “hGTPBP3 G domain A322P (domain or fragment)”, the stoichiometry N in data set [2] came out at 2.

“hGTPBP3 G domain P257H (domain or fragment)” came in with a stoichiometry N in data set [3] of 2.

In turn, “hGTPBP3 G domain ΔG312-V319 (domain or fragment)” had a stoichiometry N in data set [4] of 2.

On to “mature hGTPBP3 (hGTPBP3-ΔN20, T21-K492) (enzyme)”, for which the stoichiometry N in data set [5] worked out at 2.

The molecule “ΔN-hGTPBP3 (N154-K492) (domain or fragment)” came in with a stoichiometry N in data set [6] of 2.

B1: EcMnmE G domain (G216-G384) (domain or fragment, Escherichia coli, UniProt P25522 216-384, looked up)
chain: GMKVVIAGRPNAGKSSLLNALAGREAAIVTDIAGTTRDVLREHIHIDGMPLHIIDTAGLREASDEVERIGIERAWQEIEQADRVLFMVDGTTTDAVDPAEIWPEFIARLPAKLPITVVRNKADITGETLGMSEVNGHALIRLSARTGEGVDVLRNHLKQSMGFDTNMEG
As to B1, the “stoichiometry N” value in data set [7] stood at 2.
